Results: the FLAb antibody collection

Assay: melting temperature
Conditions: DSF (SYPRO)

Sequence | Tm [°C]
QVKLEESGGGLVQAGGSLRLSCAASERTFSRYPVAWFRQAPGAEREFVAVISSTGTSTYYADSVKGRFTISRDNAKVTVYLQMNNLKREDTAVYFCAVNSQRTRLLDPNEYDYWGQGTQVTVSSGSEQKLISEEDLNHHHHHH | 80
QVKLEESGGGLVQAGGSLRLSCAASERTFSRYPVAWFRQAPGAEREFVAVISSTGTSTYYADSVKGRFTISRDNAKVTVYLQMNNLKREDTAVYFCAVNSQRTRLQDPREYDYWGQGTQVTVSSGSEQKLISEEDLNHHHHHH | 77.6
QVKLEESGGGLVQAGGSLRLSCAASERTFSRYPVAWFRQAPGAEREFVAVISSTGTSTYYADSVKGRFTISRDNAKVTVYLQMNNLKREDTAVYFCAVNSQRTRLQNPNEYDYWGQGTQVTVSSGSEQKLISEEDLNHHHHHH | 74.9
QVKLEESGGGLVQAGGSLRLSCAASERTFSRYPVAWFRQAPGAEREFVAVISSTGTSTYYADSVKGRFTISRDNAKVTVYLQMNNLKREDTAVYFCAVNSQRTRLQYPNEYDYWGQGTQVTVSSGSEQKLISEEDLNHHHHHH | 73.4
QVKLEESGGGLVQAGGSLRLSCAASERTFSRYPVAWFRQAPGAEREFVAVISSTGTSTYYADSVKGRFTISRDNAKVTVYLQMNNLKREDTAVYFCAVNSQRTRLWDPNEYDYWGQGTQVTVSSGSEQKLISEEDLNHHHHHH | 79.7
QVKLEESGGGLVQAGGSLRLSCAASERTFSRYPVAWFRQAPGAEREFVAVISSTGTSTYYADSVKGRFTISRDNAKVTVYLQMNNLKREDTAVYFCAVNSQRTRLYDPNEYDYWGQGTQVTVSSGSEQKLISEEDLNHHHHHH | 79
QVKLEESGGGLVQAGGSLRLSCAASERTFSRYPVAWFRQAPGAEREFVAVISSTGTSTYYADSVKGRFTISRDNAKVTVYLQMNNLKREDTAVYFCAVNSQRTWLQDPNEYDYWGQGTQVTVSSGSEQKLISEEDLNHHHHHH | 77.3
QVKLEESGGGLVQAGGSLRLSCAASERTFSRYPVAWFRQAPGAEREFVAVISSTGTSTYYADSVKGRFTISRDNAKVTVYLQMNNLKREDTAVYFCAVNSQRWRLQDPNEYDYWGQGTQVTVSSGSEQKLISEEDLNHHHHHH | 77.5
QVQLQESGGGLVQPGGSLRLSCAASGFTISTTAMSWVRQAPGKGIEWVSTIFASGETTSYADFVQGRFITSRDNTKNTLYLQLNNLKTEDTAMYFCAAADDFGGLNNRYRGQGTQVTVSS | 60.7
QVQLQESGGGSVQAGGSLKLSCAASGYIFSSCAMSWYRQAPGKERELVSSITSYGDAAYTDSAKGRFTISRDNAKNTLYLHLNNLKPEDTAVYFCAACPRNKYWGQGTQVTVSS | 68.4
QVQLQESGGGSVQAGGSLKLSCDASTYTYGGKCMGWFRQAPGKEREFVAFIESDGRTSYADSVKGRFTISQDDAKNTVYLQMNSLKPEDTSMYYCKTAAGAFCGTRSYGFWGQGTQVTVSS | 57.2
QVQLQESGGGSVQAGGSLRLPCVASGYIYSPTKMGWFRQAPGKERELVSSITRDGRPYYSDSVKGRFTISQDNAKNTVYLQMNSLKPEDTAMYYCFADVRLSAVGGIKTYWDQGTQVTVSS | 58.6
QVQLQESGGGSVQAGGSLRLSCAASGWTYSTATMGWYRQAPGKERELVSSIFSDENTYYKDSVKGRFTISRDAAKNTVYLQMNSLKPEDTAMYYCYIRPTTSLANWRWGQGTQVTVSS | 59.7
QVQLQESGGGSVQAGGSLRLSCAASGYTYTMGWFRQAPGKEREGVTIIYTGYDNIVYADSVKGRFTISRDNAKNTVYLQMNNLKPEDTAMYHCAAATRGLPRSYFDPGWYDSWGQGTQVTVSS | 62.5
QVQLQESGGGSVQAGGSLRLSCAVSGYTYSRNCIGWFRQAPGKEREGVAALYTGGGSTYYAASVKGRFTISQDTKNTVYLQMNSLKPEDSAMYYCAANPFGLYTCGDLRGPDFGYWGQGTQVTVSS | 71
QVQLQESGGGSVQAGGSLRLSCAVSGYTYSSYSIGWFRQAPGKEREGVAAINSGGSTNYAGSVEGRFTISQDNAKNTVSLLMNSLKPEDTATYYCAVGAFFTLRPTLYNYKGQGTQVTVSS | 48.3
QVQLQESGGGSVQAGGSLRLSCESSGMTFSVYNLGLRQAPGQECELSTITRDGSTDYADSMKGRFTISRDNAKNTMYLQMTSLKPDDTAVYYCAAGVGVVDCTEGQGTQVTVSS | 51.8
QVQLQESGGGSVQAGGSLRLSCVASEYDFNSYSSVSVGWFRQAPGKECVLVSRIGNDARTDYSDNVKGRFTISRDNAKRTAYLEMNSLKAEDTAVYYCAANQLSSAVVGTEYPCSKAAFAHWGQGTQVTVSS | 64.8

Same assay, conditions: Other

Sequence | Tm [°C]
QVQLVESGGGLVQAGGSLRLSCAASGYAYTYIYMGWFRQAPGKEREGVAAMDSGGGGTLYADSVKGRFTISRDKGKNTVYLQMDSLKPEDTATYYCAAGGYELRDRTYGQWGQGTQVTVSSAAALEHHHHHH | 64.2

Same assay, conditions: nanoDSF

Sequence | Tm [°C]
KVQLVESGGGLVQAGGSLRLACTASGSAFSINTMGWYRRAPGKQRELVASITSSGSTTYADSVKGRFTISRDSAKNTVFLQMNSVKPEDTSVYYCNGEIQRTDYNFWGQGTQVTVSS | 63.5
QVQLQESGGGSVQAGGSLKLSCAASGYIFSSCAMSWYRQAPGKERELVSSITSYGDAAYTDSAKGRFTISRDNAKNTLYLHLNNLKPEDTAVYFCAACPRNKYWGQGTQVTVSS | 63.6
QVQLQESGGGSVQAGGSLKLSCDASTYTYGGKCMGWFRQAPGKEREFVAFIESDGRTSYADSVKGRFTISQDDAKNTVYLQMNSLKPEDTSMYYCKTAAGAFCGTRSYGFWGQGTQVTVSS | 60.8
QVQLQESGGGSVQAGGSLRLPCVASGYIYSPTKMGWFRQAPGKERELVSSITRDGRPYYSDSVKGRFTISQDNAKNTVYLQMNSLKPEDTAMYYCFADVRLSAVGGIKTYWDQGTQVTVSS | 63.3
QVQLQESGGGSVQAGGSLRLSCAASGWTYSTATMGWYRQAPGKERELVSSIFSDENTYYKDSVKGRFTISRDAAKNTVYLQMNSLKPEDTAMYYCYIRPTTSLANWRWGQGTQVTVSS | 63.9
QVQLQESGGGSVQAGGSLRLSCAASGYTYTMGWFRQAPGKEREGVTIIYTGYDNIVYADSVKGRFTISRDNAKNTVYLQMNNLKPEDTAMYHCAAATRGLPRSYFDPGWYDSWGQGTQVTVSS | 70
QVQLQESGGGSVQAGGSLRLSCAVSGYTYSSYSIGWFRQAPGKEREGVAAINSGGSTNYAGSVEGRFTISQDNAKNTVSLLMNSLKPEDTATYYCAVGAFFTLRPTLYNYKGQGTQVTVSS | 53.6
QVQLQESGGGSVQAGGSLRLSCVASEYDFNSYSSVSVGWFRQAPGKECVLVSRIGNDARTDYSDNVKGRFTISRDNAKRTAYLEMNSLKAEDTAVYYCAANQLSSAVVGTEYPCSKAAFAHWGQGTQVTVSS | 64.5
